The record followed here is US6403769.

Experiment [1] concerns the target KGFR-HFc fusion protein (construct not specified). The experiment is described as follows: binding of 125I-aFGF to KGFR-HFc in solution, capture on Gamma Bind G.
The target of experiment [2] is keratinocyte growth factor receptor (KGFR) (UniProt P21803). In words: cell-based or functional assay.
The target is the same in experiment [3]. In words: competition with 125I-KGF on 32D cells expressing KGFR.
The target is the same in experiment [4]. In words: flow cytometry on KGFR-containing B5-589 cells and NIH 3T3 transfectants, FITC rabbit anti-mouse IgG.
The target in experiment [5] is keratinocyte growth factor (KGF) (human) (UniProt P21781). The experiment is described as follows: 50% displacement of 125I-KGF by unlabeled KGF, fusion protein captured on Gamma Bind G (Scatchard analysis).
keratinocyte growth factor (KGF) (human), sequence (P21781 32-194 limits assumed): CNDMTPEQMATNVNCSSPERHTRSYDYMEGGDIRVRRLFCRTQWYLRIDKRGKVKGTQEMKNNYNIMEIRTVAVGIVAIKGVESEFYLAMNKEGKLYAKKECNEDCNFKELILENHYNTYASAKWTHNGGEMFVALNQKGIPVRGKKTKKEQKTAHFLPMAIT
The target of experiment [6] is bovine brain aFGF (bovine) (UniProt P03968). The experiment is described as follows: comparison value for native KGFR; method not described.
bovine brain aFGF (bovine), sequence (P03968 16-155 limits assumed): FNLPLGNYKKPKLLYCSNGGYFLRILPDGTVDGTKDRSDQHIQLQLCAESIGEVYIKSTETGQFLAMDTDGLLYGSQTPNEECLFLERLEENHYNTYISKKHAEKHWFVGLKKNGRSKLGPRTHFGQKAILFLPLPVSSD
The target in experiment [7] is keratinocyte growth factor (KGF) (human) (UniProt P21781). In words: comparison value for native KGFR on epithelial cells; method not described.

KGF-HFc fusion protein, sequence (P21781 other isoform, or with tags, fused parts or gaps limits assumed): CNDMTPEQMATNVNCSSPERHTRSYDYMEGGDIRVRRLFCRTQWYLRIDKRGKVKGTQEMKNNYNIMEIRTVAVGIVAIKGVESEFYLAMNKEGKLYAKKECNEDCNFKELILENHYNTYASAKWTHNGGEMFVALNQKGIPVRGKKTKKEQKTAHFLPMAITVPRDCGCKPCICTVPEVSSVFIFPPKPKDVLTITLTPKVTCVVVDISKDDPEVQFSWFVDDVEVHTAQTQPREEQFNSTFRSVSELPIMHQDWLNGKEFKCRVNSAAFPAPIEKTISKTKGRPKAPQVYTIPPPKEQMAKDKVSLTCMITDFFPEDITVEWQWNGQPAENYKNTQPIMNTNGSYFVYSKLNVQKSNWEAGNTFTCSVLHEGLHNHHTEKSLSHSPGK
bovine brain aFGF, sequence (P03968 16-155 limits assumed): as the sequence (P03968 16-155 limits assumed) above

Substance “bovine brain aFGF (from UniProt P03968 16-155) (ligand)” returned a ligand concentration at which saturable binding was achieved in experiment [1] of 40 to 50 ng/mL.

In experiment [2], “KGF-HFc fusion protein (from UniProt P21781 32-194; P01868 98-324)” returned a half-maximal stimulation of 3H-thymidine uptake in BALB/MK cells of 45 pM and a stimulation of 3H-thymidine uptake in BALB/MK cells of over 20 fold. The same substance gave a Kd in experiment [3] of 1.4 nM. For the same substance, in experiment [4], the fold increase in fluorescent intensity compared to untransfected NIH 3T3 cells lay within 10 to 100 fold.

As to “D3-HFc fusion protein (from UniProt P21803 157-232; P01868 98-324)”, in experiment [5], the dissociation constant Kd worked out at 0.02 nM.

Regarding “keratinocyte growth factor receptor (KGFR) (from UniProt P21803 22-821)”, the Kd amounted to 0.6 nM in experiment [6] and 0.18 nM in experiment [7].

For orientation: Kd means the free concentration of one partner at which half of the binding sites on the other are occupied at equilibrium, for simple one-to-one binding. Read a low Kd as tighter binding.
